Laboratory results from patent US20220275053A1, “MODIFIED […] PEPTIDE LIGANDS” (BicycleTx Limited, priority 2019, published 2022).
*1 amine or outer side, *2 acyl side, *3 side chain or, on linkers, in order; H or OH if unused. Where a SMILES comes first, the peptide text is derived from it. Bridges are numbered along the chain shown (N, C = ends). Roman numbers before positions name the chains, in order. [ ]: non-standard residue; d: D form. X1 = N=c1ccc2c(-c3ccc(C(=O)NCCOCCOCCN(CCOCCOCCOCCn4cc(CCC(=O)[*:1])nn4)CCOCCOCCOCCn4cc(CCC(=O)[*:2])nn4)cc3C(=O)O)c3ccc(N)c(S(=O)(=O)O)c3oc-2c1S(=O)(=O)O; TATA = O=C(CC[*:1])N1CN(C(=O)CC[*:2])CN(C(=O)CC[*:3])C1; tBuAla = CC(C)(C)C[C@H](N)C(=O)O; Nle = CCCC[C@H](N)C(=O)O

How the values were obtained:
CD137 [1] = target: T1, CD137 (Homo sapiens, UniProt Q07011); assay: BCY15416 direct binding to CD4 and CD8 positive T-cells (CD3 stimulated PBMCs, flow cytometry)
T1 construct: Human peripheral blood mononuclear cells (PBMCs) were isolated from buffy coats from two donors; endogenous in cells
Method: To evaluate the affinity of a CD137 dimeric Bicycle® peptide conjugated to Alexa Fluor® 488, herein referred to as BCY15416, a binding assay utilizing CD3 stimulated primary peripheral blood mononuclear cells (PBMCs) was implemented.
On the day of the experiment, medium was prepared by supplementing RPMI-1640 (Gibco™ 11875-093; with L-glutamine) with 10% heat-inactivated fetal bovine serum (FBS; Corning® 35-011-CV), 10 mM HEPES (Gibco™ 15-630-080), and 1% Penicillin Streptomycin (Corning™ 30-002-CI), herein referred to as working medium. Previously isolated human peripheral blood mononuclear cells (PBMCs), from whole blood, were quick thawed in a water bath and washed once at 500 rpm for 5 minutes in 10 mL of prewarmed working medium. PBMC pellet was then resuspended in working medium at a concentration of 3×10^6 cells/mL. Subsequently, 100 μL of cell suspension was plated in a flat-bottom tissue-culture coated 96-well plate (Greiner CellStar® 655180). Anti-human CD3 (200 ng/mL; BioLegend® 317347; clone OKT3) was added to the cell plate (100 μL/well) at a final concentration of 100 ng/mL Whereas, for unstimulated controls 100 μL of working medium was added. Cells were incubated overnight (12-24 hours) at 37° C., 5% CO2.
Plates were then incubated for 1 hour at 37° C., 5% CO2. Post-incubation, plate was centrifuged at 500 rpm for 5 minutes and supernatant discarded. Samples were then washed once in 200 μL of 1× phosphate buffer saline (PBS; Gibco™ 10-010-023) at 500 rpm for 5 minutes. Cells were resuspended in 200 μL of PBS and transferred to a 96-well V-bottom polypropylene plate (Greiner Bio-One 651201). Samples were then centrifuged at 500 rpm for 5 minutes and supernatant was discarded.
Preparation of samples for flow cytometry: Zombie Violet™ Fixable Viability Dye (BioLegend® 423113) was prepared as a 1:1000 dilution in PBS and 100 μL of viability dye was added to each well and incubated in the dark at 4° C. for 30 minutes. Subsequently, wells were washed with 100 μL of PBS for 5 minutes at 500 rpm and supernatant was discarded. Next, human TruStain FcX™ block (BioLegend® 422302) was prepared by diluting 1.5 μL of FcX in 25 μL of stain buffer (1×PBS supplemented with 2% FBS). Fc block solution (25 μL/well) was incubated at room temperature (RT) for 10 minutes in the dark. […] Cells resuspended in 200 μL of stain buffer were kept at 4° C. and in the dark until read by BD FACSCelesta™ flow cytometer and FCS files were analyzed in FlowJo™.
Cells were gated on lymphocytes→singlets→live→CD4+ or CD8+→CD137+/− and the geometric mean of Alexa Fluor® 488 (conjugated to BCY15416) was calculated from the CD137+ and CD137− populations shown below. […] Calculated binding affinity (kd,app) for each donor appear in Table 5.

CD137 [2] = target: T1, CD137; assay: Fluorescent multimers human immune cell direct binding assay (FACS); details: FIG. 3A
Method: Human peripheral blood mononuclear cells (PBMCs) were isolated from buffy coats from two donors according to standard protocols. PBMCs were used for the next step or alternatively CD8+ T cells were then isolated from the PBMCs with a MACS CD8+ T cell isolation kit (negative bead selection) according to the manufacturer's protocol (Miltenyi Biotec). PBMCs or purified CD8+ T cells were then activated for 24 hours in tissue culture flasks coated with CD3 antibody in R10 media (RPMI1640+10% FBS+1× Pen-Strep). Alternatively, cells were incubated in R10 media containing 1 μg/ml of soluble CD3 antibody (OKT3) for 24 hours. Cells were then transferred to CD3-coated 96-well flat bottom plates and incubated in R10 media in the presence of fluorescent CD137 multimers or a fluorescent EphA2 bicyclic peptide monomer (BCY0215), which was used as a negative control, at different concentrations for 1 hour at 37° C. After 1 hour, cells were transferred to a V-bottom plate and washed and stained for FACs analysis. Briefly, cells were stained in 1× Live/Dead BV510 for 15 minutes, washed, and then surface stained with the following antibodies: CD8-BV785 (or CD3-BV605) and CD137-PECy5 (diluted 1:100). Cells were then washed and fixed in 2% paraformaldehyde (PFA). Cells were run on the BD FACSCelesta and FCS files were analyzed in FlowJo. […]

CD137 [3] = target: T2, CD137 (Macaca fascicularis, UniProt A9YYE7); assay: Fluorescent multimer cyno immune cell direct binding assay (FACS); parameters: species or system cynomolgus monkey; details: FIG. 4
T2 construct: Cryopreserved PBMCs were purchased from Worldwide Primates and thawed according to standard protocol
Method: Cryopreserved PBMCs were purchased from Worldwide Primates and thawed according to standard protocol. CD8+ T cells were then isolated from the PBMCs with a MACS CD8+ T cell isolation kit (negative bead selection) according to the manufacturer's protocol (Miltenyi Biotec). Purified CD8+ T cells were then activated for 48 hours 96 well plates coated with CD3 antibody (1 μg/ml) in R10 media (RPMI1640+10% FBS+1× Pen-Strep). Cells were incubated in R10 media in the presence of fluorescent CD137 multimers or a fluorescent EphA2 bicyclic peptide monomer (BCY0215), which was used as a negative control, at different concentrations for 1 hour at 37° C. After 1 hour, cells were transferred to a V-bottom plate and washed and stained for FACs analysis. Briefly, cells were stained in 1× Live/Dead BV510 for 15 minutes, washed, and then surface stained with the following antibodies: CD8-BV785 and CD137-PECy5 (diluted 1:100 in 2% FBS/PBS). Cells were then washed and fixed in 2% paraformaldehyde (PFA). Cells were run on the BD FACSCelesta and FCS files were analyzed in FlowJo. Cells were gated on Single/Live/Lymphocytes/CD8+/CD137+ or CD137−. The FITC geometric mean of the CD137+ population is shown.

human CD137 = target: T3, human CD137 (human, UniProt Q07011 24-255); assay: flow cytometry, direct binding to activated human CD8+/CD137+ T cells
T3 construct: whole, on cells; Endogenous receptor on CD3-stimulated human PBMCs or purified CD8+ T cells; also called CD137 receptor; 4-1BB
T3 sequence (Q07011 24-255): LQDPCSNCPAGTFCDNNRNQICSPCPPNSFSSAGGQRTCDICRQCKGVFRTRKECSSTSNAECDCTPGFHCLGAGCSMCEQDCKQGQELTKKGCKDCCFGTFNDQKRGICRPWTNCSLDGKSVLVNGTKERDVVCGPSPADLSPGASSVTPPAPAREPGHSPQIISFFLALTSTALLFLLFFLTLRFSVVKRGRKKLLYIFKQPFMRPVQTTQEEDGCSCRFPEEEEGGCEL

T1 sequence (Q07011 24-255): as above
T2 sequence (A9YYE7 1-254): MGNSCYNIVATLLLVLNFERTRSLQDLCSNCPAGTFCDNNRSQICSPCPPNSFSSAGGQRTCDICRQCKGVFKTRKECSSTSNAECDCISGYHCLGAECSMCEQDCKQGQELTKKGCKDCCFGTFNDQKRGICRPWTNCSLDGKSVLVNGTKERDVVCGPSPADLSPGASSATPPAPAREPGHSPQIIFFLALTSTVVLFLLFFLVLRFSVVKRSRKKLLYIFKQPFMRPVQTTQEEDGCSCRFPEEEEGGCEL

With `CCCC[C@@H]1NC(=O)[C@H](Cc2ccc(O)cc2)NC(=O)[C@@H]2CCCN2C(=O)[C@H](CC(=O)O)NC(=O)[C@H](C)NC(=O)[C@H](Cc2ccccc2)NC(=O)[C@@H]2CSCCC(=O)N3CN(CN(C3)C(=O)CCSC[C@@H](C(=O)N[C@@H](C)C(N)=O)NC1=O)C(=O)CCSC[C@H](NC(C)=O)C(=O)N[C@@H](CC(C)(C)C)C(=O)N1CCC[C@H]1C(=O)N[C@@H](CCC(=O)O)C(=O)N[C@H](CCCCNC(=O)CCc1cn(CCOCCOCCOCCN(CCOCCOCCNC(=O)c3ccc(-c4c5ccc(=N)c(S(=O)(=O)O)c-5oc5c(S(=O)(=O)O)c(N)ccc45)c(C(=O)O)c3)CCOCCOCCOCCn3cc(CCC(=O)NCCCC[C@H]4NC(=O)[C@H](CCC(=O)O)NC(=O)[C@@H]5CCCN5C(=O)[C@H](CC(C)(C)C)NC(=O)[C@@H](NC(C)=O)CSCCC(=O)N5CN6CN(C5)C(=O)CCSC[C@H](NC(=O)[C@H](Cc5ccc(O)cc5)NC(=O)[C@@H]5CCCN5C4=O)C(=O)N[C@@H](Cc4ccccc4)C(=O)N[C@@H](C)C(=O)N[C@@H](CC(=O)O)C(=O)N4CCC[C@H]4C(=O)N[C@@H](Cc4ccc(O)cc4)C(=O)N[C@@H](CCCC)C(=O)N[C@H](C(=O)N[C@@H](C)C(N)=O)CSCCC6=O)nn3)nn1)C(=O)N1CCC[C@H]1C(=O)N[C@@H](Cc1ccc(O)cc1)C(=O)N2` [BCY15416] (I: Ac-C[tBuAla]PE[dK]PYCFADPY[Nle]CA-NH2 / II: Ac-C[tBuAla]PE[dK]PYCFADPY[Nle]CA-NH2; linker I:1-I:8-I:15, II:1-II:8-II:15 via TATA; linker I:5-II:5 via X1; C-terminus assumed) as the molecule, how does the “binding to CD137+ T-cells (Alexa Fluor 488 geometric mean)” value (CD137 [1]; CD137+CD4+ and CD137+CD8+ T-cells, three human PBMC donors, FIG. 6) read?
The value was “binding exclusively to the CD137+CD4+ T-cells and CD137+CD8+ T-cells, in a dose-dependent manner”.

And the “binding to CD137− T cells” value (CD137 [1]; CD137− CD4 and CD8 T cells, FIGS. 6A and 6B)?
Its value is “does not bind”.

What about the “binding affinity in CD137− populations” value (CD137 [1]; CD137− populations for both CD4+ and CD8+) of the same molecule?
The value was “unable to be calculated”.

And the “binding affinity (range in words)” value (CD137 [1]; both CD137+CD4+ and CD137+CD8+ populations)?
The value was “sub-nanomolar range”.

Which “binding potency relative to fluorescent trimer (BCY9932) and tetramer (BCY9931)” value (CD137 [2]; human CD137+ T cells) does the source give for “BCY7340: Fluorescent CD137 dimer: formula (II), CHM C, 2 x BCY7077, SA n=23, fluorescein modifier (CIEEGQYCFADPYMCAX; not fully specified; non-natural residues; cyclised or stapled)” here?
The value was “slightly less potent binding”.

And the “binding to human CD137+ T cells (FITC geometric mean)” value (CD137 [2]; purified CD8+/CD137+ T cells from human PBMCs, 1 hour at 37° C.)?
The value was “bind to human CD137+ T cells in a dose responsive manner”.

And the “binding potency relative to fluorescent trimer (BCY9932) and tetramer (BCY9931)” value (CD137 [3]; cyno CD137+ T cells)?
The value was “less potent binding”.

What about the “binding to cyno CD137+ T cells (FITC geometric mean)” value (CD137 [3]; purified CD8+/CD137+ T cells from cynomolgus monkey PBMCs, 1 hour at 37° C.) of the same molecule?
Its value is “bind to cyno CD137+ T cells in a dose responsive manner”.

B1: BCY9931 (peptide)
peptide: ACIEEGQYCFADPYXCX
modifications: N-terminal acetyl; Nle (norleucine) at position 12 of the core; C-terminal Dap(Lys(PYA)) amide (CONH2); the three Cys (Ci, Cii, Ciii) cyclised on the TATA scaffold; joined through PYA to spacer SA (n = 23) on central hinge moiety A; Alexa Fluor 488 conjugated to one of the four peptides (formula (I))
notes: also called fluorescent CD137 multimer; fluorescent tetramer
Does B1 bind (human CD137)?
Result: binds
